According to the supplement of paper PMC10126150:
± gives the standard deviation of the averaged measurements.

The sequences below were run on ATP (assay: switch fluorescence ratio, 500 uM ATP over buffer (Cy3 cluster intensity, sum of 5 cycles each) (fold (ratio)); higher = stronger signal-on switching upon ATP binding; sequences stand for … in TCGTCGGCAGCGTCAGATGTGTATAAGAGACAGTTTTTTTTTTTTTTTTTTTTTTTTT…TC). Details: aptamer strand: ATP DNA aptamer (quencher-CACCTGGGGGAGTATTGCGGAGGAAGG + anchor), 100 nM annealed; ATP concentration: 500 uM.
How it was run: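 Clusters carrying Cy3-labelled switching strands on a modified Illumina MiSeq flow-cell were annealed to 100 nM quencher-labelled ATP aptamer and imaged in selection buffer. They were imaged again after 15 min with 500 uM ATP at 22 °C, over five buffer/ATP cycles with NaOH stripping and re-annealing in between. For each cluster, the fluorescence ratio is the summed Cy3 intensity of the target cycles divided by that of the buffer cycles, averaged per switch-domain sequence. Clusters outside 100-1000 RFU were left out.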
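Further: ATP exposure 15 min at 22 °C before imaging.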

ATCGAGCCGG and TCTGCGGGGA are within error of each other in switch fluorescence ratio: 0.98 ± 0.049 for the first, 1.14 ± 0.21 for the second.

Going from AGGATAACCG to TTAGCAGCGT, the switch fluorescence ratio falls from 1.028 ± 0.0012 to 1 ± 0.019.

GACGTCTGGC and ATTGTGTGGT are within error of each other in switch fluorescence ratio: 1.14 ± 0.24 for the first, 1.01 ± 0.026 for the second.

TTCTGGGGGT and TCGAAGGGGA are within error of each other in switch fluorescence ratio: 0.999 ± 0.051 for the first, 0.971 ± 0.035 for the second.

Compared with CGTGCGGGGG, AAGGAAATAG is lower in switch fluorescence ratio: 1.01 ± 0.035 for the first, 0.969 ± 0.0021 for the second.

TGGGTAATGG and TTTGACGCAT are within error of each other in switch fluorescence ratio: 1.01 ± 0.038 for the first, 1.6 ± 0.67 for the second.

CATTAAGCTG and CTGGGTCTGA are within error of each other in switch fluorescence ratio: 1 ± 0.12 for the first, 1.02 ± 0.026 for the second.

GGATCCTGGG and GAAAAAGATT are within error of each other in switch fluorescence ratio: 0.993 ± 0.022 for the first, 0.999 ± 0.017 for the second.

TTCAGACTAT and TTTAGTGGGC are within error of each other in switch fluorescence ratio: 1.01 ± 0.027 for the first, 0.9843 ± 0.0081 for the second.

TGTGATAGGT and TGGCAGAGGG are the same in switch fluorescence ratio: 1 ± 0.028 for the first, 1 ± 0.044 for the second.

CCTTAGTGTT and AGAAAGGAAG are within error of each other in switch fluorescence ratio: 1.03 ± 0.015 for the first, 1.01 ± 0.024 for the second.

ACGGTGATGG and TGTTATATGT are within error of each other in switch fluorescence ratio: 1.018 ± 0.0071 for the first, 1.01 ± 0.012 for the second.

GAGATCGTCG and ACAGGGCGGG are within error of each other in switch fluorescence ratio: 0.993 ± 0.01 for the first, 1.01 ± 0.035 for the second.

ATAAGTAAAT and TGTCGTCTGT are within error of each other in switch fluorescence ratio: 1 ± 0.018 for the first, 0.9932 ± 0.0063 for the second.

TCTTTTTTGG and CACTAGCTCG are within error of each other in switch fluorescence ratio: 1 ± 0.042 for the first, 1.02 ± 0.021 for the second.

Compared with GGGCGTAAAA, GAGAAAGCTA is lower in switch fluorescence ratio: 1.07 ± 0.023 for the first, 1.031 ± 0.0084 for the second.

AAAAAGTGGT and AGGGTGGGTG are within error of each other in switch fluorescence ratio: 0.9827 ± 0.0041 for the first, 1.01 ± 0.024 for the second.

Compared with GAGAGGGAAT, ACATTGATGG is higher in switch fluorescence ratio: 1.021 ± 0.0091 for the first, 1.028 ± 0.00017 for the second.

TAAGAGTTC and TCTGTCCTTC are within error of each other in switch fluorescence ratio: 0.99 ± 0.034 for the first, 1.06 ± 0.054 for the second.

TTGCAGGTTT and CGTTAAAATA are within error of each other in switch fluorescence ratio: 1.11 ± 0.18 for the first, 1.01 ± 0.062 for the second.

First: GCCGCGTATC
Second: ATTGCGGGTT
The switch fluorescence ratio of the first is higher: 1.65 ± 0.12 for the first, 0.981 ± 0.013 for the second.

First: GCGGGGGGAC
Second: GCTATTGGTG
The switch fluorescence ratio of the first is lower: 1.01 ± 0.015 for the first, 1.06 ± 0.019 for the second.

CGCCAAATTT and TTTACGAAAG are within error of each other in switch fluorescence ratio: 1.07 ± 0.1 for the first, 1.04 ± 0.044 for the second.

GGGGTTAGAA and GGTTATTGAG are within error of each other in switch fluorescence ratio: 0.984 ± 0.0077 for the first, 0.9799 ± 0.0044 for the second.

TCAAGTATGT and TATTTAGCGT are the same in switch fluorescence ratio: 1.006 ± 0.01 for the first, 1.01 ± 0.067 for the second.

TGGGATGGGT and TTTCCTGTAT are within error of each other in switch fluorescence ratio: 1.02 ± 0.092 for the first, 0.972 ± 0.046 for the second.

GGGGAGAACT and GGTTGTTGTT are within error of each other in switch fluorescence ratio: 0.992 ± 0.016 for the first, 0.978 ± 0.029 for the second.

First: TGGACTTGGG
Second: TGGCCACTTA
The switch fluorescence ratio of the first is lower: 0.983 ± 0.023 for the first, 1.073 ± 0.0058 for the second.

CAAGAGGGAC and CTAATGACGT are within error of each other in switch fluorescence ratio: 1.04 ± 0.13 for the first, 1.01 ± 0.015 for the second.

TGGTTGCGGC and CGGGGTGTT are within error of each other in switch fluorescence ratio: 0.986 ± 0.03 for the first, 0.994 ± 0.017 for the second.

GGAATGGGTA and GGTTATAATT are within error of each other in switch fluorescence ratio: 0.997 ± 0.027 for the first, 1.004 ± 0.0011 for the second.

First: ACGAGTTACT
Second: TTAGTGAGCG
The switch fluorescence ratio of the first is higher: 1.1 ± 0.013 for the first, 1.03 ± 0.012 for the second.

Compared with ACATAGTAAT, TCTTTTGGCG is lower in switch fluorescence ratio: 1.001 ± 0.0092 for the first, 0.927 ± 0.059 for the second.

CTAGGGGTTT and TTGCTAAAGG are within error of each other in switch fluorescence ratio: 1 ± 0.034 for the first, 0.964 ± 0.016 for the second.

Compared with AGTTTTGATG, GAGATAGAGA is higher in switch fluorescence ratio: 0.9784 ± 0.0044 for the first, 1.02 ± 0.03 for the second.

First: ATGAGGGACT
Second: CCCGAAGGTA
The switch fluorescence ratio of the first is lower: 0.9594 ± 0.0036 for the first, 1.01 ± 0.024 for the second.

GACGGGGAAT and GTGGGGAATA are within error of each other in switch fluorescence ratio: 0.979 ± 0.01 for the first, 1.03 ± 0.043 for the second.

TATAAAGGGG and TTTGTGGTTG are within error of each other in switch fluorescence ratio: 1 ± 0.025 for the first, 0.992 ± 0.032 for the second.

TAGAAACACT and GTAAGATTAT are within error of each other in switch fluorescence ratio: 1.05 ± 0.02 for the first, 0.985 ± 0.067 for the second.

First: CCGGACCCAA
Second: TTAATGATTT
The switch fluorescence ratio of the first is higher: 1.75 ± 0.23 for the first, 1 ± 0.034 for the second.

ATTTTAATGC and TTGGGGCACA are within error of each other in switch fluorescence ratio: 1.018 ± 0.0019 for the first, 1.01 ± 0.031 for the second.

AGAAGAGTAA and AATTGCAGAG are the same in switch fluorescence ratio: 1.009 ± 0.0091 for the first, 1.014 ± 0.0032 for the second.

TCAGTAATCT and GAGAAAAATG are within error of each other in switch fluorescence ratio: 1.01 ± 0.058 for the first, 0.9597 ± 0.0087 for the second.

Compared with CCGAGGTCGT, TAGGGAATGT is lower in switch fluorescence ratio: 1.17 ± 0.066 for the first, 1 ± 0.019 for the second.

TCGATAATTA and TTCGACGAGG are within error of each other in switch fluorescence ratio: 0.97 ± 0.09 for the first, 0.996 ± 0.022 for the second.

TGGTTTGGGC and CGTGGCGGTT are within error of each other in switch fluorescence ratio: 0.984 ± 0.034 for the first, 1.09 ± 0.13 for the second.

ATAATTAACG and GGGTGTTGTC are within error of each other in switch fluorescence ratio: 0.986 ± 0.034 for the first, 1.006 ± 0.01 for the second.

First: ACACTGGCCC
Second: ACGCGGGTAA
The switch fluorescence ratio of the first is lower: 0.964 ± 0.038 for the first, 1.023 ± 0.0095 for the second.

First: GAGTGGGTTA
Second: TGGTTTAAGT
The switch fluorescence ratio of the first is higher: 1.03 ± 0.012 for the first, 0.987 ± 0.027 for the second.

ACGGCCTTAT and CGGGTCATTT are within error of each other in switch fluorescence ratio: 0.991 ± 0.033 for the first, 0.9691 ± 0.0035 for the second.
